Assay results taken from patent publication US20240287177A1 (Merck KGaA, published 2024).
Where a chain is given by its changes, count along the chain named.

T1: recombinant human NKp30 extracellular domain, his-tagged (human, UniProt O14931 19-135)
T1 construct: BLI used human NKp30 bought from Abcam (his-tagged ECD); also called rh NKp30 ECD; human NKp30 (Abcam); not shown: his tag
T1 sequence: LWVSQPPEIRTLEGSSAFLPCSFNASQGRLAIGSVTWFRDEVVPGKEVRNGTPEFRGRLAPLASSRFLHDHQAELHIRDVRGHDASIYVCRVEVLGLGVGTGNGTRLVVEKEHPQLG

B1: VHH16 SEEDbody eff- (bispecific antibody, part only; not given: silenced SEED Fc and cetuximab Fab, V domains shown, not shown: another chain or arm of the molecule; a dimerising Fc or GST; small tags and cut ends)
VHH: DVQLQESGGGLVQPGGSLRLSCTASGSIFSSLTMAWWRQAPGKQRELVAGITTDGSTDYADSVKGRFTISRDNAKNTVYLQMDSLKPEDTAVYYCNKSPYYDPTDYDSWGQGTQVTVSS
B2: VHH10 SEEDbody eff- (bispecific antibody, part only; not given: silenced SEED Fc and cetuximab Fab, V domains shown, not shown: another chain or arm of the molecule; a dimerising Fc or GST; small tags and cut ends)
VHH: DVQLQESGGGSVQAGGSLRLSCAASGRTFSSNFMGWFRQAPNKDREFVAAIHWSGGSRAYADSVKGRFTISRDNTKDTVYLLVNSLKLEDTAVYYCAAEISWQTTGWTNLGSWGQGTQVTVSS
B3: VHH12 SEEDbody eff- (bispecific antibody, part only; not given: silenced SEED Fc and cetuximab Fab, V domains shown, not shown: another chain or arm of the molecule; a dimerising Fc or GST; small tags and cut ends)
VHH: B2 VHH with S11L, N32D, N42G, D44E, A59S, T75A, V83M, S101R, T108A
B4: VHH5 SEEDbody eff- (bispecific antibody, part only; not given: silenced SEED Fc and cetuximab Fab, V domains shown, not shown: another chain or arm of the molecule; a dimerising Fc or GST; small tags and cut ends)
VHH: DVQLQESGGGLVQPGESLRLSCLVSGVTYHFYDITWFRQAPGLEREGVSCISYASGSTKFADSVKGRFTISRDNAKNAVYLQMNSLKPEDTAVYFCATQGSGSCSDFMSADSVLSWGQGTQVTVSS
B5: VHH3 SEEDbody eff- (bispecific antibody, part only; not given: silenced SEED Fc and cetuximab Fab, V domains shown, not shown: another chain or arm of the molecule; a dimerising Fc or GST; small tags and cut ends)
VHH: B4 VHH with R19K, S57T, Q82E, D111G
B6: VHH4 SEEDbody eff- (bispecific antibody, part only; not given: silenced SEED Fc and cetuximab Fab, V domains shown, not shown: another chain or arm of the molecule; a dimerising Fc or GST; small tags and cut ends)
VHH: B4 VHH with T98M
B7: VHH15 SEEDbody eff- (bispecific antibody, part only; not given: silenced SEED Fc and cetuximab Fab, V domains shown, not shown: another chain or arm of the molecule; a dimerising Fc or GST; small tags and cut ends)
VHH: DVQLQESGGGLVQAGGSLRLSCAVSGSTFRLNVMGWYRQAPGKLRDLVAGITADGGVTNYADSVKGRFIISRDNAKNTVYLQMNSLKPEDTAIYYCNTAPANWGSWGQGTQVTVSS
B8: VHH9 SEEDbody eff- (bispecific antibody, part only; not given: silenced SEED Fc and cetuximab Fab, V domains shown, not shown: another chain or arm of the molecule; a dimerising Fc or GST)
VHH: DVQLQESGGGLVQAGGSLRLSCAASGRGGASYAMGWFRQAPGKEREFVAAISWTGDTTYNVDSVKGRFTISSDNAKNPVYLDMSSLKPEDTAVYYCAAAHWTRVVAKGAMADEKKYEYWGQGTQVTVSS
B9: VHH7 SEEDbody eff- (bispecific antibody, part only; not given: silenced SEED Fc and cetuximab Fab, V domains shown, not shown: another chain or arm of the molecule; a dimerising Fc or GST; small tags and cut ends)
VHH: DVQLQESGGGLAQPGGSLRLSCAASGFTFSSYDMGWYRQVPGKECELVAAIFSAGGSTIYADSVKGRFTISRDNAKNTVFLQMNSLKPEDTAVYYCNKAPPFTTIQPTCVMIDTQLGAWGQGTQVTVSS
B10: VHH8 SEEDbody eff- (bispecific antibody, part only; not given: silenced SEED Fc and cetuximab Fab, V domains shown, not shown: another chain or arm of the molecule; a dimerising Fc or GST; small tags and cut ends)
VHH: B9 VHH with V40A, G55D, R72S, T108M
B11: VHH6 SEEDbody eff- (bispecific antibody, part only; not given: silenced SEED Fc and cetuximab Fab, V domains shown, not shown: another chain or arm of the molecule; a dimerising Fc or GST; small tags and cut ends)
VHH: DVQLQESGGGLVQTGGSLRLSCAASGLPFSKYAIAWFRQAPGKESEFLVVVSWSGDKFYQDNMKGRCTISRDNAKNTAYLQINSLQPEDTAVYYCAASGSYPVTDRYFYNFWGQGTQVTVSS
B12: VHH11 SEEDbody eff- (bispecific antibody, part only; not given: silenced SEED Fc and cetuximab Fab, V domains shown, not shown: another chain or arm of the molecule; a dimerising Fc or GST; small tags and cut ends)
VHH: DVQLQESGGGLVQAGGSLRLSCAASGRTFSSDFMGWFRQAPGKEREFVAAIHWSGGSTSYADSVKGRFTISRDNAKDTVYLLMNSLKLEDTAVYYCAAEIRWLTTGWANLGSWGQGTQVTVSS
B13: VHH13 SEEDbody eff- (bispecific antibody, part only; not given: silenced SEED Fc and cetuximab Fab, V domains shown, not shown: another chain or arm of the molecule; a dimerising Fc or GST; small tags and cut ends)
VHH: B12 VHH with V12A, A14P, S17P, S30T, T58R, L103Q, T105A, A108V
B14: VHH14 SEEDbody eff- (bispecific antibody, part only; not given: silenced SEED Fc and cetuximab Fab, V domains shown, not shown: another chain or arm of the molecule; a dimerising Fc or GST; small tags and cut ends)
VHH: DVQLQESGGGLVQPGGSLRLSCEASGVTFNFYSMTWYRQAPGKERELVADITSEGRTEYAHSVKGRFIISRDDFGTMVYLQMNSLKPEDTAVYYCYTGGSWGQGTQVTVSS
B15: VHH2 (parental, as tested in Example 9) (VHH)
VHH: DVQLQESGGGLVQAGGSLRLSCAVSGQTWTNYHIGWFRQAPGKARESVASIEWGGRGTYATDSVKGRFTISRDNAKNTVYLQMNSLKPEDTAVYYCAAQSSSRSPLESNYDYWGQGTQVTVSS
notes: expressed and measured by BLI 'as described in Experiment 1' (there: bispecific SEEDbody on anti-human Fc sensors)
B16: VHH2.6 (humanized) (VHH)
VHH: B15 VHH with D1E, Q5V, L11V, A14P, F37V, A44G, R45L, K87R, P88A, Q118L
notes: as for B15
B17: VHH2.11 (humanized) (VHH)
VHH: B15 VHH with D1E, Q5V, L11V, A14P, V24A, A44G, R45L, K87R, P88A, Q118L
notes: as for B15
B18: VHH2.5 (humanized) (VHH)
VHH: B15 VHH with D1E, Q5V, L11V, A14P, A44G, R45L, K87R, P88A, Q118L
notes: as for B15
B19: VHH2.15 (humanized) (VHH)
VHH: EVQLVESGGGVVQPGGSLRLSCAASGQTWTNYHIGWFRQAPGKGLESVASIEWGGRGTYATDSVKGRFTISRDNAKNTLYLQMNSLRAEDTAVYYCAAQSSSRSPLESNYDYWGQGTLVTVSS
notes: as for B15
B20: VHH2.1 (humanized) (VHH)
VHH: B19 VHH with P14A, A24V, G44A, L45R, L79V
notes: as for B15
B21: VHH2.3 (humanized) (VHH)
VHH: B19 VHH with A24V, G44A, L45R
notes: as for B15
B22: VHH2.12 (humanized) (VHH)
VHH: B19 VHH with S47W, L79V
notes: as for B15
B23: VHH2.2 (humanized) (VHH)
VHH: B19 VHH with A24V, G44A, L45R, L79V
notes: as for B15
B24: VHH2.7 (humanized) (VHH)
VHH: B19 VHH with A24V
notes: as for B15
B25: VHH2.8 (humanized) (VHH)
VHH: B19 VHH with A24V, S47W
notes: as for B15

Target: recombinant human NKp30 extracellular domain, his-tagged (human) (UniProt O14931)
Experiment: BLI, SEEDbody on anti-human Fc sensors, soluble NKp30, 1:1 fit

Binder	Kd [nM]	koff [s⁻¹]	kon [M⁻¹ s⁻¹]
B1	0.139	9.28e-05	666000
B2	0.253	8.75e-05	346000
B3	0.982	0.000898	914000
B4	0.289	0.000186	643000
B5	0.281	0.00017	604000
B6	2.57	0.000218	84800
B7	< 0.001	< 1e-07	440000
B8	4.99	0.00187	376000
B9	52.4	0.00352	67200
B10	0.322	0.000134	416000
B11	292	0.129	442000
B12	1.02	0.000415	405000
B13	0.211	0.000162	766000
B14	0.31	0.000144	464000

Target: NKp30 on human NK cells (human) (UniProt O14931)
Experiment: cell-based or functional assay

Binder	EC50 (nM), MNC based killing of A431 cells, E:T 80:1 [nM]	Max. IFNγ release (pg/ml), NK cells with A431 cells [pg/mL]	Max. Killing (% Lysis), MNC based killing of A431 cells, E:T 80:1 [% Lysis]	Max. TNFα release (pg/ml), NK cells with A431 cells [pg/mL]
B1	0.00128	515	50	114
B2	0.0146		51	
B3	0.00207		49	
B4	0.00286	635	56	119
B5	0.00284		53	
B6	0.00592	560	55	129
B7	0.0013		50	
B8	0.0161		53	
B9	0.0433		49	
B10	0.00899	595	50	109
B11	1.43		42	
B12	0.0111		50	
B13	0.00241		51	
B14	0.00144		51	

Target: T1, recombinant human NKp30 extracellular …
Experiment: BLI as in Example 1

Binder	Kd [nM]
B15	2.88
B16	27.6
B17	4.7
B18	2.92
B19	12.3
B20	2.91
B21	9.97
B22	4.24
B23	2.1
B24	9.76
B25	6.61

Target: T1, recombinant human NKp30 extracellular …
Experiment: BLI as in Example 1, maximum binding capacity

Binder	Emax (nm)
B15	0.17
B16	0.07
B17	0.16
B18	0.11
B19	0.07
B20	0.18
B21	0.13
B22	0.14
B23	0.15
B24	0.1
B25	0.1
